Some targets named below: TFIIH subunit XPB (human, UniProt P19447 1-782); histone H2B (X. laevis, UniProt P02281); histone H4 (X. laevis, UniProt P62799).
What all share (test): cryo-EM structure

This note sets out measurements from PMC10237034 (Molecular Cell, 2023).

TFIIH subunit XPB, sequence (P19447 whole entry): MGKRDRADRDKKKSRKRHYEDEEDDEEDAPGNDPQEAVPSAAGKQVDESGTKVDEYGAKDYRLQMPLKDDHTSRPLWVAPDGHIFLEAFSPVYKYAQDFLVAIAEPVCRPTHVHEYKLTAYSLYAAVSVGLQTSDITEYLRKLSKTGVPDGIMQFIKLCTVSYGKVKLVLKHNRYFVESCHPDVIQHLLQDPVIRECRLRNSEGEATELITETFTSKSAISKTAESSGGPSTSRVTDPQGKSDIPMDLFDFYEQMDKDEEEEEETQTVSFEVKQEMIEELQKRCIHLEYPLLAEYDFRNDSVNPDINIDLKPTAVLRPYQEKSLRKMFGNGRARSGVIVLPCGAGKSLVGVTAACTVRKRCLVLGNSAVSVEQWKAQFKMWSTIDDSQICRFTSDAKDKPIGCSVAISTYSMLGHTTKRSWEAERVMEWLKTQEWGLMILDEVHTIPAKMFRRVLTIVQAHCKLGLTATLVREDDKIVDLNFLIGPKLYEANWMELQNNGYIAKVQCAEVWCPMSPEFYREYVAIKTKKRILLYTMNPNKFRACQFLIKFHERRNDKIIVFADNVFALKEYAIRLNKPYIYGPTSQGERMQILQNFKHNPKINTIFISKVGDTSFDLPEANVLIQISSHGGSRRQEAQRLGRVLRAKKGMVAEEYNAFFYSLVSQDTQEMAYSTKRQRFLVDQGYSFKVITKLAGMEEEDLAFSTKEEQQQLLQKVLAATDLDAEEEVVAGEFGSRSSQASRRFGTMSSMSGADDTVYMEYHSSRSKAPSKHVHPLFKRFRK

B1: TFIIH subunit MAT1 (natural protein)
chain: MDDQGCPRCKTTKYRNPSLKLMVNVCGHTLCESCVDLLFVRGAGNCPECGTPLRKSNFRVQLFEDPTVDKEVEIRKKVLKIYNKREEDFPSLREYNDFLEEVEEIVFNLTNNVDLDNTKKKMEIYQKENKDVIQKNKLKLTREQEELEEALEVERQENEQRRLFIQKEEQLQQILKRKNKQAFLDELESSDLPVALLLAQHKDRSTQLEMQLEKPKPVKPVTFSTGIKMGQHISLAPIHKLEEALYEYQPLQIETYGPHVPELEMLGRLGYLNHVRAASPQDLAGGYTSSLACHRALQDAFSGLFWQPS
Take B1: in the experiment with TFIIH subunit XPB, the binding result is “binds”.

B2: TFIIH subunit p8 (natural protein)
chain: MVNVLKGVLIECDPAMKQFLLYLDESNALGKKFIIQDIDDTHVFVIAELVNVLQERVGELMDQNAFSLTQK
For the molecule B2, the binding result in the experiment with histone H2B and with histone H4 was “binds” throughout.
